Assay results taken from the supplement of paper PMC9876800.

Test system: peptide library, one residue held at a place counted from the S/T acceptor
Assay: relative phosphorylation of the sub-library (ratio to the mean residue at this position); higher = residue favoured
In short: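 Relative sub-library phosphorylation is a ratio to the mean residue at the same position. Purified recombinant kinases were incubated under kinase-specific conditions with biotinylated degenerate peptide sub-libraries, each fixing one residue at one position around a central Ser/Thr, using 50 μM peptide and 50 μM ATP spiked with γ-32P-ATP for 90 min. Spots captured on streptavidin membranes were phosphorimaged and quantified by densitometry.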

Chain of PLK2, construct: aa57-360, human (Q9NYY3 57-360, looked up): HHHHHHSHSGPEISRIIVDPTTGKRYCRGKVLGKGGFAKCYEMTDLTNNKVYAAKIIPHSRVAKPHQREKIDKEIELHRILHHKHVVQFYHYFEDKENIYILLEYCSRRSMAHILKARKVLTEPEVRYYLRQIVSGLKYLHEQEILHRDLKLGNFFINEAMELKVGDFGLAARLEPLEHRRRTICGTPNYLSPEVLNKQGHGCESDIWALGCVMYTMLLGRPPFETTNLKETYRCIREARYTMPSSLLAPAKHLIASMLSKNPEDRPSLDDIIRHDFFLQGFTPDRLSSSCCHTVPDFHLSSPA
Chain of CLK1, construct: aa128-end, human (P49759 128-484, looked up): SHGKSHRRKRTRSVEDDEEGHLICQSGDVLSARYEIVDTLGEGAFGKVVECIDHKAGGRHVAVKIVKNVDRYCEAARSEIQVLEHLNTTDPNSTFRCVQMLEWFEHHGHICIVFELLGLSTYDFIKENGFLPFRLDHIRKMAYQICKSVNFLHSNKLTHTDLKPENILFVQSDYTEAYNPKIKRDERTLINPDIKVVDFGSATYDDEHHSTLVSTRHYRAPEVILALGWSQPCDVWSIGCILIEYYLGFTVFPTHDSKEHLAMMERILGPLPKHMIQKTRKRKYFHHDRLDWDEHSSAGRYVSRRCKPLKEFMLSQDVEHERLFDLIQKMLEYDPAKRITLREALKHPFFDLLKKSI
Chain of TBK1, construct: Full length, human (Q9UHD2 whole entry, looked up): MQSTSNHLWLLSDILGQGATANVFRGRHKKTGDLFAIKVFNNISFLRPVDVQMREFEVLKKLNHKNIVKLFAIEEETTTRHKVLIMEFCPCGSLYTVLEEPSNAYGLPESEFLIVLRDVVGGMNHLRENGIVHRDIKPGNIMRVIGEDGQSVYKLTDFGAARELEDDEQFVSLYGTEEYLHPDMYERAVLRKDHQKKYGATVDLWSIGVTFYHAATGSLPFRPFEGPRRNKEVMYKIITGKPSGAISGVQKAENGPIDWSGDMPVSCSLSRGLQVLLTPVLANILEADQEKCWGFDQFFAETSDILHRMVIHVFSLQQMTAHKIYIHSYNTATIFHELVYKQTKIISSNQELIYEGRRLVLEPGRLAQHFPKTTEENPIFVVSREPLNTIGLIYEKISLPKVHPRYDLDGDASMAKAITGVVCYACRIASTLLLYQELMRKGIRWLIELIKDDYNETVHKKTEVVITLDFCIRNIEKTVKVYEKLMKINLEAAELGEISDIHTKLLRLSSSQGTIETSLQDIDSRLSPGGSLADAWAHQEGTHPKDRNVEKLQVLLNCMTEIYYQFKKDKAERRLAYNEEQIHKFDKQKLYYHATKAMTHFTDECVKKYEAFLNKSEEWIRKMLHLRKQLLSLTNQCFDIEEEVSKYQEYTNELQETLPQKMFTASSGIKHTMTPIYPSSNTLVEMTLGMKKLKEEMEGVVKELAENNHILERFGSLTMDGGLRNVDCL
Chain of UHMK1, construct: Full length, rat (Q63285 whole entry, looked up): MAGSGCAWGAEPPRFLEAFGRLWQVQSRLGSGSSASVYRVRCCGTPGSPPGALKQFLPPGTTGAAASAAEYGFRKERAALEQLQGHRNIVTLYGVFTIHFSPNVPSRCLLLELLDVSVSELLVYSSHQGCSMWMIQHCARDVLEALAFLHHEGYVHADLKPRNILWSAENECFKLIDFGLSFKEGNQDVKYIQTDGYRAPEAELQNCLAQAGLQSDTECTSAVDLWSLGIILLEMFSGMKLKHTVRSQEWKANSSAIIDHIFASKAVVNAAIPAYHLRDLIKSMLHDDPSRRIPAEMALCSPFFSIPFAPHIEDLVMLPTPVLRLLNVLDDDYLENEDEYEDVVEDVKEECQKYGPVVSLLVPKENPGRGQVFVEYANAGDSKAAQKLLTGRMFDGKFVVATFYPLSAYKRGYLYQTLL

TBK1, construct: Full length, human (from UniProt Q9UHD2)
relative phosphorylation
Conditions	at +1	at +2	at +3	at +4	at -1	at -2	at -3	at -4	at -5
A fixed	0.37	1.01	0.9	0.857	1.09	0.967	1.04	1.04	1.06
D fixed	0.296	0.857	0.879	0.864	0.882	1.15	1.27	1.29	1.16
E fixed	0.214	0.903	0.869	0.945	0.855	1.06	1.32	1.13	1.18
F fixed	1.85	1.22	1.31	1.23	0.885	1.33	0.781	0.789	0.923
G fixed	0.548	0.851	0.974	0.897	0.814	1.12	1.56	1.19	1.19
H fixed	0.557	1.09	1.16	1.05	1.11	1.06	1.08	1.04	1.21
I fixed	2.31	1.23	0.75	1.12	0.853	0.589	0.68	0.789	0.771
K fixed	0.249	0.616	0.555	0.768	1.13	0.613	0.985	1.07	1.19
L fixed	3.03	1.22	1.04	1.09	1.06	0.864	0.568	0.903	0.805
M fixed	2.85	1.27	1.1	1.14	1.29	1.16	0.928	0.998	0.8
N fixed	0.349	1.02	0.962	0.876	0.957	0.883	1.09	1.2	1.09
P fixed	0.178	0.765	1.16	1.04	1.26	1.83	1.24	1.08	0.981
Q fixed	0.333	1.06	0.884	0.921	1.05	0.928	1.24	1.03	1.03
R fixed	0.255	0.858	0.602	0.743	1.05	0.666	1	0.997	1.12
V fixed	0.957	1.3	0.974	0.889	0.834	0.658	0.7	0.721	0.784
W fixed	1.41	0.804	1.33	1.36	0.75	0.748	0.711	0.877	0.857
Y fixed	1.24	0.931	1.54	1.22	1.12	1.39	0.812	0.861	0.859
pThr fixed	0.465	0.783	0.625	0.849	0.582	0.817	1.14	1.01	1.06
pTyr fixed	0.494	0.785	0.848	0.779	1.07	1.46	1.32	1.03	1.11

PLK2, construct: aa57-360, human (from UniProt Q9NYY3)
relative phosphorylation
Conditions	at +1	at +2	at +3	at +4	at -1	at -2	at -3	at -4	at -5
A fixed	0.569	0.927	0.69	0.793	0.879	0.734	0.559	0.825	0.975
D fixed	0.52	2.18	2.27	1.98	2.51	3.13	1.77	1.74	1.46
E fixed	0.87	2.23	2.59	2.2	1.61	2.35	7.3	2.19	1.53
F fixed	3.75	0.919	0.861	0.916	0.658	0.508	0.751	1.06	1.37
G fixed	0.529	0.54	0.81	0.842	0.587	0.655	0.583	0.9	1.25
H fixed	0.628	0.999	0.914	0.988	1.16	0.8	0.625	0.888	1.11
I fixed	1.3	0.971	0.835	0.974	0.697	0.558	0.318	0.888	0.806
K fixed	0.452	0.227	0.358	0.442	0.634	0.3	0.292	0.638	0.722
L fixed	1.02	0.707	0.874	0.982	0.701	1.23	0.608	1.11	0.844
M fixed	1.78	1.01	0.85	0.869	0.874	1.24	0.763	0.866	0.842
N fixed	0.567	0.99	1.05	0.866	1.24	1.88	0.687	1	0.955
P fixed	0.159	0.532	0.609	1.07	1.46	0.736	0.482	0.928	0.955
Q fixed	1.2	0.752	0.987	0.877	0.833	0.883	0.717	0.846	0.692
R fixed	0.691	0.438	0.396	0.441	0.79	0.465	0.333	0.609	0.694
V fixed	0.994	0.841	0.765	0.554	0.899	0.391	0.269	0.775	0.757
W fixed	0.683	1.31	1.08	1.24	0.469	0.458	0.48	0.907	0.977
Y fixed	1.28	1.44	1.05	0.968	0.997	0.676	0.459	0.845	1.06
pThr fixed	1.33	2.29	2.39	3.26	1.07	1.08	1.05	1.68	1.04
pTyr fixed	1.4	11	2.89	3.61	4.55	0.912	1.2	1.6	1.63

CLK1, construct: aa128-end, human (from UniProt P49759)
relative phosphorylation
Conditions	at +1	at +2	at +3	at +4	at -1	at -2	at -3	at -4	at -5
A fixed	0.598	1.12	0.654	0.682	0.844	2.56	0.707	0.901	0.836
D fixed	0.144	0.577	0.507	0.907	0.327	0.602	0.306	0.506	0.591
E fixed	0.488	0.614	0.409	0.937	0.393	1.54	0.309	0.636	0.666
F fixed	0.442	0.909	0.713	1.01	0.669	0.339	0.317	0.87	1.86
G fixed	0.498	0.93	0.782	0.916	0.988	1.17	0.427	0.877	0.877
H fixed	0.56	1.23	1.01	0.915	0.822	0.482	0.634	1.02	0.956
I fixed	1.22	0.828	0.552	0.678	0.538	0.257	0.383	1.03	0.9
K fixed	0.704	1.53	3.14	1.47	2.35	0.993	2.66	1.8	1.49
L fixed	0.897	0.926	0.665	0.884	1.01	0.467	0.381	1.01	0.943
M fixed	0.839	0.985	0.633	0.907	0.999	0.427	0.394	0.866	0.891
N fixed	0.345	0.832	0.842	0.959	0.717	0.605	0.407	0.776	0.746
P fixed	5.99	1.18	1.84	0.92	0.993	0.588	0.368	0.725	0.839
Q fixed	0.739	0.875	0.854	1.19	1.02	0.936	0.598	0.871	0.742
R fixed	0.697	1.94	2.42	1.76	2.84	5.04	8.11	2.33	1.82
V fixed	1.95	1.08	0.627	0.722	0.667	0.345	0.325	0.92	0.809
W fixed	0.388	0.695	0.687	1.24	0.961	0.343	0.328	0.963	0.971
Y fixed	0.505	0.757	0.673	0.913	0.862	0.314	0.344	0.89	1.06
pThr fixed	0.711	1.62	0.67	1.58	0.273	0.444	0.355	0.642	0.501
pTyr fixed	0.383	0.451	0.856	0.874	0.523	0.283	0.321	0.748	0.76

UHMK1, construct: Full length, rat (from UniProt Q63285)
relative phosphorylation
Conditions	at +1	at +2	at +3	at +4	at -1	at -2	at -3	at -4	at -5
A fixed	0.707	1.1	1.58	1.14	1.16	1.12	0.872	0.961	0.981
D fixed	0.246	0.442	0.33	0.594	1.67	3.17	3.13	1.43	1.11
E fixed	0.266	0.515	0.397	1.54	0.818	1.86	2.01	1.14	1.02
F fixed	0.343	1.09	1.12	0.824	0.666	0.678	0.626	0.742	0.715
G fixed	0.86	1.08	0.906	0.915	1.54	1.22	1.11	1.02	0.994
H fixed	0.349	0.936	0.99	0.78	0.872	0.714	0.822	0.872	1.45
I fixed	0.665	1.18	0.77	1.36	0.636	0.663	0.704	0.917	0.931
K fixed	0.437	1.07	0.477	0.761	0.939	0.636	0.625	1.15	1.64
L fixed	0.363	1.02	0.872	0.86	0.808	0.677	0.672	0.95	1.22
M fixed	0.362	0.76	0.601	0.847	0.73	0.599	0.647	0.703	0.748
N fixed	0.299	0.664	0.402	0.588	1.36	0.945	1.09	1.28	1.18
P fixed	10.2	2.02	4.75	1.07	1.9	1.37	1.17	1.16	0.952
Q fixed	0.321	0.729	0.447	1.46	0.957	0.693	0.801	0.769	0.669
R fixed	0.388	0.958	0.829	0.681	0.81	0.592	0.674	0.677	0.749
V fixed	0.475	1.37	0.887	1.89	0.763	0.786	0.69	0.734	0.758
W fixed	0.362	0.831	0.732	0.792	0.681	0.631	0.665	1.79	1.13
Y fixed	0.337	1.25	0.91	0.891	0.687	0.642	0.685	0.712	0.749
pThr fixed	0.306	0.654	0.572	0.747	1.2	5.01	2.73	1.9	2.82
pTyr fixed	0.357	0.536	0.505	1.06	0.702	2.41	2.11	1.36	0.883
